These results are taken from US4016250A, “Method for testing for pregnancy” (Cornell Research Foundation, Inc., priority 1974, dated 1977).

Changes are numbered by the printed parent chain.

In assay [1] the target is T1, receptor for HCG in plasma membranes from bovine corpora lutea (Bos taurus, UniProt Q28005).
T1 construct: 100 g. of tissue from approximately 25 large corpora lutea; from tissue; host or cells: bovine corpora lutea of early pregnancy (slaughterhouse), plasma membrane fraction from zonal sucrose gradient
The experiment in a line: Radioreceptorassay of HCG: competition with 125I-HCG for plasma membrane receptor. The assay is classed as binding. The settings on record: for cross-reaction in the radioreceptorassay of HCG: highly purified preparations, 30 minutes at 37° C. The protocol:
All procedures in the preparation of plasma membranes were carried out in an ice bath or at 4° C. Fresh bovine ovaries from early pregnancy (first trimester: fetus length from crown to rump up to 22 cm.) were obtained from the slaughter house and stored in liquid nitrogen until processed. In a typical experiment, 100 g. of tissue from approximately 25 large corpora lutea were cut into small pieces with a sharp steel blade and ground in 500 ml. of 10 mM. Tris-HCl buffer of pH. 7.8 containing one mM. of MgCl2, one MM. dithiothreitol, 10,000I.U. of Trasylol (FBA Pharmaceuticals) per liter and 0.25 M. sucrose. The homogenate was filtered through two layers of cheese cloth and the larger particles were reprocessed in 500 ml. of the buffer. […] The homogenate was centifuged at 650 xg. for 20 minutes in a Sorvall refrigerated centrifuge (RC B, Rotor GSA) to remove intact cells, cell debris and nuclei. The 650 × g. supernatant was again centrifuged at 13,000 g. for 20 minutes in the same centrifuge. Supernatant was this time discarded and the pellet was resuspended in 50 to 70 ml. of the Tris-HCl buffer with the aid of the Teflon-glass homogenizer. This suspension was injected in the core of a TI-14 zonal rotor (Model Beckman Spinco L3-50) spinning at 3,000 rpm. and containing 500 ml. of a linear sucrose gradient (LKB Ultrograd 11300 pump) from 30% (w/v) to 50% (w/v) sucrose and 120 ml. of cushion of 50% (w/v) sucrose (pumping rate 20 ml./min.) An overlay of 20 ml. was injected after the sample. After two hours of centrifugation at 45,000 rpm., the centrifuge was decelerated and the rotor content displaced with 55% sucrose at 20 ml./min. […]
In Table I, the incubation was performed for 30 minutes at 37° C. in a Dunaboff water bath shaker. […] The supernates were aspirated and the pellets were counted in a Packard Autogamma counter with a 51% efficiency for I^125. The standard curves and the hormonal concentration in the plasma samples were calculated by a time sharing IBM computer using logit-log transformations.

In assay [2] the target is T2, PRL receptor sites in plasma membrane from bovine corpora lutea (Bos taurus, UniProt Q28172).
T2 construct: plasma membrane from bovine corpora lutea; from tissue; host or cells: bovine corpora lutea, plasma membranes
T2 sequence (Q28172 25-581): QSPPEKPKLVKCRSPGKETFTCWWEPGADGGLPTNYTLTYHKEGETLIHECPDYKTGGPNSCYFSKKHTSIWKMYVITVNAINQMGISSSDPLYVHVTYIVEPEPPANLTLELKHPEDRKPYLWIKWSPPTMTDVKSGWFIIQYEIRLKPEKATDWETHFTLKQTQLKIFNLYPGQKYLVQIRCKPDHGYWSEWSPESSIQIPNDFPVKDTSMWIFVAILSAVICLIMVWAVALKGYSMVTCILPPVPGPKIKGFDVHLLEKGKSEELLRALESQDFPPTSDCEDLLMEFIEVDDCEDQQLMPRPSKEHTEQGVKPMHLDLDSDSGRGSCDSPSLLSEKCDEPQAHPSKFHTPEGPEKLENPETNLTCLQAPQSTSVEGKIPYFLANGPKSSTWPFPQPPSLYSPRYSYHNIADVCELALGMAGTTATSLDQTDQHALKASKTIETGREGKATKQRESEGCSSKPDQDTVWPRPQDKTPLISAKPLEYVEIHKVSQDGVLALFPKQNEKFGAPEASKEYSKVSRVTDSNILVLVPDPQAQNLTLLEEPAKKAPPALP
Description: Binding of 125I-hPRL to plasma membrane / ovarian homogenate (saturation, time course). The protocol:
[…] At the end of incubation, 1 ml of ice cold buffer was added to all tubes and tubes were centrifuged at 5,000 rpm for 20 minutes. The supernatants were aspirated. The pellets containing receptor bound hormones were counted in an Automamma counter with a 51% efficiency for ^125 I (Packard Instrument Company, Downers Grove, Illinois). Specific binding was calculated as the difference of binding in the tubes with and without unlabeled PRL. Specific binding of ^125 I-hPRL to plasma membrane from bovine corpora lutea was a saturable process.

Assay [3] concerns the target T3, PRL receptor sites in ovarian homogenates (Bos taurus, UniProt Q28172).
T3 construct: from tissue; host or cells: ovarian homogenate (bovine, from the preparation section)
T3 sequence (Q28172 25-581): T2 sequence (Q28172 25-581)
The experiment in a line: Specificity of 125I-hPRL binding: displacement by unlabeled hormones. Set-up: species or system bovine. The protocol: A reaction mixture containing 100 ul of incubation buffer containing 10 IU Trasylol (FBA Pharmaceuticals, New York, New York), 50 ul of receptor preparation equivalent to 1-300 ug of protein and 100 ul of ^125 I-hPRL (SA; 50-70 uCi/ug) were incubated at 37° C. for 2 hours in the absence and in the presence of 1 ug of unlabeled bovine PRL. At the end of incubation, 1 ml of ice cold buffer was added to all tubes and tubes were centrifuged at 5,000 rpm for 20 minutes. The supernatants were aspirated. The pellets containing receptor bound hormones were counted in an Automamma counter with a 51% efficiency for ^125 I (Packard Instrument Company, Downers Grove, Illinois). Specific binding was calculated as the difference of binding in the tubes with and without unlabeled PRL.

T1 sequence (Q28005 27-701): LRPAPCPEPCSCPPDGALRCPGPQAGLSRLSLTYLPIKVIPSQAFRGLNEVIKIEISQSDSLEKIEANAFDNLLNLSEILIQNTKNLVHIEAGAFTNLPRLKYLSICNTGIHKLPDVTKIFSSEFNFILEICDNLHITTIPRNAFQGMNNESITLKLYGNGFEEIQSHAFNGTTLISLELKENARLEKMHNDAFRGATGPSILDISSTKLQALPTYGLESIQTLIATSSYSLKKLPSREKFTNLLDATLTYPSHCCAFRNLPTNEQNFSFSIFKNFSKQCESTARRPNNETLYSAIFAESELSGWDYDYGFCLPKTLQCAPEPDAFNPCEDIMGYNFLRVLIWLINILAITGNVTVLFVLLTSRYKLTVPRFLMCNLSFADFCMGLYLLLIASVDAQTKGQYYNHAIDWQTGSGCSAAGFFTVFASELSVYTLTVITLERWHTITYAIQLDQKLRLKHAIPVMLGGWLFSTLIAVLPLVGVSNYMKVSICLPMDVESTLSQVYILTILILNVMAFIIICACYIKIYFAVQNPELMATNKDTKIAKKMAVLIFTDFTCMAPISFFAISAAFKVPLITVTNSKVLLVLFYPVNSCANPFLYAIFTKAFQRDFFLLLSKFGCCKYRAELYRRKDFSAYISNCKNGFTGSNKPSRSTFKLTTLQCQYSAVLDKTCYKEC

B1: prolactin (protein, UniProt P01236 29-227, looked up)
Prolactin: LPICPGGAARCQVTLRDLFDRAVVLSHYIHNLSSEMFSEFDKRYTHGRGFITKAINSCHTSSLATPEDKEQAQQMNQKDFLSLIVSILRSWNEPLYHLVTEVRGMQEAPEAILSKAVEIEEQTKRLLEGMELIVSQVHPETKENEIYPVWSGLPSLQMADEESRLSAYYNLLHCLRRDSHKIDNYLKLLKCRIIHNNNC
Consider B1, for which, in assay [1] (FIG. 2 legends: TSH, HGH, PRL are plasma from hypothyroid, acromegalic, postpartum lactation subjects), the “cross-reaction in the radioreceptorassay of HCG (FIG. 2)” value is “no cross-reaction”. Further, the “cross-reaction in the radioreceptorassay of HCG” value in assay [1] is reported as “complete lack of cross-reaction”.

B2: ^125 I-hPRL: human prolactin iodinated with 125I by chloramine-T or lactoperoxidase (protein, UniProt P01236 29-227, looked up)
Prolactin: B1 Prolactin
modifications: 125I label
notes: human prolactin iodinated with 125I by chloramine-T or lactoperoxidase
B2: the “fraction of 125I-hPRL bound” value in assay [2] (100 ug of homogenate, absence of unlabeled PRL) is 20-20%. Moreover, in assay [2] (37° C), the “time to reach binding equilibrium” value amounted to 2 h. The binding entry in assay [2] (incubation) was “little binding”.

B3: HPL: highly purified preparation of HPL, abbreviation not expanded in the text (protein, UniProt P0DML2 27-217, looked up)
Chorionic somatomammotropin …: VQTVPLSRLFDHAMLQAHRAHQLAIDTYQEFEETYIPKDQKYSFLHDSQTSFCFSDSIPTPSNMEETQQKSNLELLRISLLLIESWLEPVRFLRSMFANNLVYDTSDSDDYHLLKDLEEGIQTLMGRLEDGSRRTGQILKQTYSKFDTNSHNHDALLKNYGLLYCFRKDMDKVETFLRMVQCRSVEGSCGF
In the case of B3, in assay [1], the “cross-reaction in the radioreceptorassay of HCG” value is on record as “complete lack of cross-reaction”.

B4: human chorionic somatomammotropin (protein, UniProt P0DML2 27-217, looked up)
Chorionic somatomammotropin …: B3 Chorionic somatomammotropin …
In the case of B4, the “displacement of 125I-hPRL bound to receptor protein” value in assay [3] (various concentrations) is recorded as “capable of displacing”.

B5: bovine PRL: bovine prolactin, unlabeled (protein, UniProt P01239 31-229, looked up)
Prolactin: TPVCPNGPGNCQVSLRDLFDRAVMVSHYIHDLSSEMFNEFDKRYAQGKGFITMALNSCHTSSLPTPEDKEQAQQTHHEVLMSLILGLLRSWNDPLYHLVTEVRGMKGAPDAILSRAIEIEEENKRLLEGMEMIFGQVIPGAKETEPYPVWSGLPSLQTKDEDARYSAFYNLLHCLRRDSSKIDTYLKLLNCRIIYNNNC
Regarding B5, the “potency in competing with 125I-hPRL” value in assay [3] is on record as “essentially of similar potency”. The “effect on specific binding of 125I-hPRL to ovarian homogenates” value in assay [3] (1 ug unlabeled hormone added) is given as “inhibited”.

B6: ovine PRL: ovine prolactin (protein, UniProt P01240 31-229, looked up)
Prolactin: B5 Prolactin with D31N, A108V, Y165H
As for B6, the “potency in competing with 125I-hPRL” value in assay [3] is “essentially of similar potency”.
